Where two headings read alike, the source gives them in different places.
B1: rFVII-CTP (protein)
chain: AVFVTQEEAHGVLHRRRRANAFLEELRPGSLERECKEEQCSFEEAREIFKDAERTKLFWISYSDGDQCASSPCQNGGSCKDQLQSYICFCLPAFEGRNCETHKDDQLICVNENGGCEQYCSDHTGTKRSCRCHEGYSLLADGVSCTPTVEYPCGKIPILEKRNASKPQGRIVGGKVCPKGECPWQVLLLVNGAQLCGGTLINTIWVVSAAHCFDKIKNWRNLIAVLGEHDLSEHDGDEQSRRVAQVIIPSTYVPGTTNHDIALLRLHQPVVLTDHVVPLCLPERTFSERTLAFVRFSLVSGWGQLLDRGATALELMVLNVPRLMTQDCLQQSRKVGDSPNITEYMFCAGYSDGSKDSCKGDSGGPHATHYRGTWYLTGIVSWGQGCATVGHFGVYTRVSQYIEWLQKLMRSEPRPGVLLRAPFPSSSSKAPPPSLPSPSRLPGPSDTPILPQ

Tests used:
Factor X [1] = target: Factor X (UniProt P00742); experiment: cell-based or functional assay
Factor X [2] = target: Factor X (UniProt P00742); experiment: cell-based or functional assay; remark: listed apart in the source
Factor X [3] = target: Factor X (UniProt P00742)

Factor X, P00742, sequence (P00742 whole entry, looked up): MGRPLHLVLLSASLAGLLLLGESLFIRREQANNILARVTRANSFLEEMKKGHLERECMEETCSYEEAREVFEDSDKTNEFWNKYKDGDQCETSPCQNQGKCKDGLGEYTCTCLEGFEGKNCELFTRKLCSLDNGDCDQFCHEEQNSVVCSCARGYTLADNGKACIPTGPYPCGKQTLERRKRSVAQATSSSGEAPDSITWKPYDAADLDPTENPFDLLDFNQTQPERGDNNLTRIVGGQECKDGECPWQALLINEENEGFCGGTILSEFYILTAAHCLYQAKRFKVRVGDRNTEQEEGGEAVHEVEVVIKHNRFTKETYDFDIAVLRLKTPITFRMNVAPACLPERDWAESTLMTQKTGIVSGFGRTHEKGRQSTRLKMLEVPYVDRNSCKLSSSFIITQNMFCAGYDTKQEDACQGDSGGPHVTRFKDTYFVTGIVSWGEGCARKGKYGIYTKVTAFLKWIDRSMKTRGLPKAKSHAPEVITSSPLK

Row | Molecule | Sample/plasma EC50 ratio (FIX chromogenic activity, BIOPHEN kit) (Factor X [1]) | EC50, FIX chromogenic activity (BIOPHEN kit) (Factor X [1]) [µg/mL] | further results
1 | FIX-CTP3 (enzyme) | 2 | – | –
2 | FIX-CTP4 (enzyme) | 5.35 | – | –
3 | FIX-CTP-CTP (enzyme) | – | 0.382 | EC50, FIX chromogenic activity (BIOPHEN kit) (Factor X [2]): 0.505 µg/mL
4 | FIX-CTP-CTP | – | – | fold decrease in the enzymatic activity (chromogenic assay) (Factor X [3]): An approximately 15-fold decrease in the enzymatic activity of the FIX-(CTP)2 harvest was observed.; fold decrease in the enzymatic activity versus normal human pulled plasma (chromogenic assay) (Factor X [3]): a 16.5-fold decrease versus normal human pulled plasma; fold decrease in the enzymatic activity vs. recombinant FIX (chromogenic assay) (Factor X [3]): An approximately 7-fold decrease in the enzymatic activity of FIX-CTP-CTP was observed vs. recombinant FIX
5 | FIX-CTP5 (enzyme) | 2.73 | – | –
6 | FIX-CTP (from UniProt P00740 47-461) (enzyme) | – | 1.64 | –
7 | rhFIX (American Diagnostics) (from UniProt P00740 47-461) (enzyme) | – | 0.021 | EC50, FIX chromogenic activity (BIOPHEN kit) (Factor X [2]): 0.0687 µg/mL
8 | B1 | – | – | FVII chromogenic activity (AssaySense Human FVII Chromogenic Activity Assay Kit) (Factor X, P00742): The addition of the CTP peptide at the C-terminal of the rFVII protein did not impair the FVII serine protease activity
